Laboratory results reported in patent US20250296959A1, “B7-H3 TARGETING PEPTIDES AND CONSTRUCTS THEREOF” (Mariana Oncology Inc., priority 2024, published 2025).
Values belong to the binder of their own block, whether it stands above or below them. Starred links: 1 amine or outer side, 2 acyl side, 3 side chain; linkers in the order of their positions; H or OH if unused. Positions of bridges follow the written chain, without caps; N, C: chain ends. Non-standard residues stand in square brackets, D forms with d. Groups on a side chain read outwards from the residue. Primed or numbered codes have the meaning given here. *: point of attachment. R‑DOTAGA = O=C(O)CN1CCN(CC(=O)O)CCN([C@H](CCC(=O)*)C(=O)O)CCN(CC(=O)O)CC1; Ala(piperidin-4-yl) = O=C([C@H](CC1CCN([*:3])CC1)N[*:1])[*:2]; (2S,3S)βMePhe = C[C@@H](c1ccccc1)[C@H](N[*:1])C(=O)[*:2]; DOTA = O=C(O)CN1CCN(CC(=O)O)CCN(CC(=O)*)CCN(CC(=O)O)CC1; Phe(4-NHCONH2) = NC(=O)Nc1ccc(C[C@H](N)C(=O)O)cc1; PipAla = piperidinyl-alanine residue (as named); Trp(5-F) = N[C@@H](Cc1c[nH]c2ccc(F)cc12)C(=O)O; hydroxyVal = hydroxy-valine residue (as named); PEG4′ = 4x 3-(2-aminoethoxy)propanoic acid; γGlu = O=C(O)[C@H](CCC(=O)[*:2])N[*:1]; 1Nal = N[C@@H](Cc1cccc2ccccc12)C(=O)O; Ala(4-THP) = N[C@@H](CC1CCOCC1)C(=O)O; Val(3-OH) = CC(C)(O)[C@H](N)C(=O)O; Cha = N[C@@H](CC1CCCCC1)C(=O)O; Tle = CC(C)(C)[C@H](N)C(=O)O; hLeu = CC(C)CC[C@H](N)C(=O)O; Ms = CS(=O)(=O)*

Columns and labels:
[1] = molecular target: B7-H3 on Calu-6 cells (human) (UniProt Q5ZPR3); assay: 177Lu-labelled peptide on Calu-6 cells, % cell associated fraction; C = >50%
[2] = molecular target: B7-H3 on Calu-6 cells (human) (UniProt Q5ZPR3); assay: 177Lu-labelled peptide on Calu-6 cells, % cell associated fraction; B = 25<%<=50
[3] = molecular target: T1, B7-H3 on Calu-6 cells (human, UniProt Q5ZPR3 29-534); assay: 177Lu-labelled peptide on Calu-6 cells, % cell associated fraction; C = >50%
T1 construct: whole, on cells
T1 sequence (looked up): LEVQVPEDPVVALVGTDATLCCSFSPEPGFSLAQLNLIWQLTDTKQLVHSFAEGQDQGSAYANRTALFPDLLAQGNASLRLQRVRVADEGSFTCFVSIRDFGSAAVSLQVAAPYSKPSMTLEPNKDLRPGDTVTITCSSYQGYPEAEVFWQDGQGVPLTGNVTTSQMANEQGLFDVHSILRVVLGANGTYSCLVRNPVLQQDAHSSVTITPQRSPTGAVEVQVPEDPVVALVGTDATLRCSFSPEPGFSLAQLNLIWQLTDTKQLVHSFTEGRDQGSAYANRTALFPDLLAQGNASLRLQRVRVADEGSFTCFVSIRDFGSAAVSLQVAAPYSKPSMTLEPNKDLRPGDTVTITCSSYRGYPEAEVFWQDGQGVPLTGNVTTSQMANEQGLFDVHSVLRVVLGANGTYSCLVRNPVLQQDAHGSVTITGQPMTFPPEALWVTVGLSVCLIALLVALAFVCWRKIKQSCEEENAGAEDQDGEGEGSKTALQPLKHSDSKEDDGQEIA

Binder: Ac-[hLeu]YCVG[Ala(piperidin-4-yl)][Cha]DVYC[Trp(5-F)]F[Val(3-OH)][dK](DOTA)-NH2 (disulfide 3-11 (inferred)) [Cpd 227]
% cell associated fraction [1]: > 50%

Binder: Ac-[hLeu]YC[Tle]G[PipAla](CH2CO2H)[Ala(4-THP)]DVYC[Trp(5-F)]F[Val(3-OH)][dK](DOTA)-OH (disulfide 3-11 (inferred)) [Cpd 339]
% cell associated fraction [1]: > 50%

Binder: Ac-[hLeu]YC[Tle]G[Ala(piperidin-4-yl)][Ala(4-THP)]DVYC[Trp(5-F)]F[Val(3-OH)][dK](DOTA)-OH (disulfide 3-11 (inferred)) [Cpd 340]
% cell associated fraction [1]: > 50%

Binder: Ac-[hLeu]YC[Tle]GK(DOTA)[Ala(4-THP)]DVYC[Trp(5-F)]F[Val(3-OH)]-NH2 (disulfide 3-11 (inferred)) [Cpd 338]
% cell associated fraction [2]: 25 to 50%

Binder: Ac-[hLeu]YC[Tle]GK[Pip(PEG4-DOTA)Ala]DVYC[Trp(5-F)]F[Val(3-OH)]-NH2 (disulfide 3-11 (inferred)) [Cpd 383]
% cell associated fraction [2]: 25 to 50%

Binder: Ac-[hLeu]YC[Tle]G[Pip(PEG4-DOTA)Ala][Ala(4-THP)]DVYC[Trp(5-F)]F[Val(3-OH)][dA]-NH2 (disulfide 3-11 (inferred)) [Cpd 384]
% cell associated fraction [2]: 25 to 50%

Binder: Ac-[hLeu]YC[Tle]GK[Pip(PEG4-DOTA)Ala]DVYC[Trp(5-F)]F[Val(3-OH)][dA]-NH2 (disulfide 3-11 (inferred)) [Cpd 385]
% cell associated fraction [1]: > 50%

Binder: Ac-[hLeu]YC[Tle]G[Pip(PEG4-DOTA)Ala][Ala(4-THP)]DVYC[Trp(5-F)]F[Val(3-OH)][dS]-NH2 (disulfide 3-11 (inferred)) [Cpd 407]
% cell associated fraction [1]: > 50%

Binder: Ac-[hLeu]YC[Tle]GK[Pip(PEG4-DOTA)Ala]DVYC[Trp(5-F)]F[Val(3-OH)][dS]-NH2 (disulfide 3-11 (inferred)) [Cpd 408]
% cell associated fraction [1]: > 50%

Binder: Ac-[hLeu]YC[Tle]GK[Pip(PEG4-DOTA)Ala]DVYC[Trp(5-F)]F[Val(3-OH)][dE]-NH2 (disulfide 3-11 (inferred)) [Cpd 410]
% cell associated fraction [2]: 25 to 50%

B7: Cpd 72 (peptide)
peptide: Ac-[hLeu]YC[Tle]GKYDVYCWFT[dK](DOTA)-NH2
modifications: disulfide 3-11
SMILES: CC(=O)N[C@@H](CCC(C)C)C(=O)N[C@@H](Cc1ccc(O)cc1)C(=O)N[C@H]1CSSC[C@@H](C(=O)N[C@@H](Cc2c[nH]c3ccccc23)C(=O)N[C@@H](Cc2ccccc2)C(=O)N[C@H](C(=O)N[C@H](CCCCNC(=O)CN2CCN(CC(=O)O)CCN(CC(=O)O)CCN(CC(=O)O)CC2)C(N)=O)[C@@H](C)O)NC(=O)[C@H](Cc2ccc(O)cc2)NC(=O)[C@H](C(C)C)NC(=O)[C@H](CC(=O)O)NC(=O)[C@H](Cc2ccc(O)cc2)NC(=O)[C@H](CCCCN)NC(=O)CNC(=O)[C@H](C(C)(C)C)NC1=O
% cell associated fraction [3]: > 50%

Now from value to binder:

% cell associated fraction [1]: > 50%
B1: Cpd 427 (peptide)
peptide: Ac-[hLeu]YC[Tle]G[PipAla][Ala(4-THP)]DV[Phe(4-NHCONH2)]CXF[hydroxyVal][dK](DOTA)-OH
modifications: disulfide 3-11 (inferred); not fully specified (residue 12); printed as Ac-hLeu-Y-C-Tbg-G-PipAla-ThpA-D-V-Aph(Cbm)-C-5FW-F-hydroxyVal-dLys(DOTA)-COOH, disulfide

% cell associated fraction [2]: 25 to 50%
B2: Cpd 429 (peptide)
peptide: Ac-[hLeu]YC[Tle]G[PipAla][Ala(4-THP)]DVYCXF[hydroxyVal][dK]([dE-DOTA])-OH
modifications: disulfide 3-11 (inferred); not fully specified (residue 12); printed as Ac-hLeu-Y-C-Tbg-G-PipAla-ThpA-D-V-Y-C-5FW-F-hydroxyVal-dLys(dGlu-DOTA)-COOH, disulfide

% cell associated fraction [1]: > 50%
B3: Cpd 433 (peptide)
peptide: Ac-[hLeu]YC[Tle]G[PipAla][Ala(4-THP)]DVYCX[(2S,3S)βMePhe][hydroxyVal][dK](DOTA)-OH
modifications: disulfide 3-11 (inferred); not fully specified (residue 12); printed as Ac-hLeu-Y-C-Tbg-G-PipAla-ThpA-D-V-Y-C-5FW-[(2S, 3S)beta-Me-Phe]-hydroxyVal-dLys(DOTA)-COOH, disulfide

% cell associated fraction [2]: 25 to 50%
Binder: Ac-[hLeu]YC[Tle]G[PipAla][Ala(4-THP)]DVYC[1Nal]F[hydroxyVal][dK](DOTA)-OH (disulfide 3-11 (inferred)) [Cpd 436]

% cell associated fraction [2]: 25 to 50%
B4: Cpd 437 (peptide)
peptide: Ms-[hLeu]YC[Tle]G[PipAla][Ala(4-THP)]DVYCXF[hydroxyVal][dK](DOTA)-OH
modifications: disulfide 3-11 (inferred); not fully specified (residue 12); printed as MeSO2-hLeu-Y-C-Tbg-G-PipAla-ThpA-D-V-Y-C-5FW-F-hydroxyVal-dLys(DOTA)-COOH, disulfide

% cell associated fraction [2]: 25 to 50%
B5: Cpd 438 (peptide)
peptide: Ac-[hLeu]YC[Tle]G[PipAla][Ala(4-THP)]DVYCXF[hydroxyVal][dK](R‑DOTAGA)-OH
modifications: disulfide 3-11 (inferred); not fully specified (residue 12); printed as Ac-hLeu-Y-C-Tbg-G-PipAla-ThpA-D-V-Y-C-5FW-F-hydroxyVal-dLys(R-DOTAGA)-COOH, disulfide

% cell associated fraction [2]: 25 to 50%
B6: Cpd 440 (peptide)
peptide: Ac-[hLeu]YC[Tle]G[PipAla][Ala(4-THP)]DVYCXF[hydroxyVal][dK]([γGlu-DOTA])-OH
modifications: disulfide 3-11 (inferred); not fully specified (residue 12); printed as Ac-hLeu-Y-C-Tbg-G-PipAla-ThpA-D-V-Y-C-5FW-F-hydroxyVal-dLys(gGlu-DOTA)-COOH, disulfide

% cell associated fraction [1]: > 50%
Binder: Ac-[hLeu]YC[Tle]G[PipAla][Ala(4-THP)]DVYC[Trp(5-F)]F[hydroxyVal][dK]([hGlu-DOTA])-OH (disulfide 3-11 (inferred)) [Cpd 464]

% cell associated fraction [2]: 25 to 50%
Binder: Ac-[hLeu]YC[Tle]G[PipAla][Ala(4-THP)]DVYC[Trp(5-F)]F[hydroxyVal][dK]([PEG4′-DOTA])-OH (disulfide 3-11 (inferred)) [Cpd 465]

% cell associated fraction [1]: > 50%
Binder: Ac-[hLeu]YC[Tle]G[PipAla](CH2COOH)[Ala(4-THP)]DVYC[Trp(5-F)][(2S,3S)βMePhe][Val(3-OH)][dK](DOTA)-OH (disulfide 3-11 (inferred)) [Cpd 497]

% cell associated fraction [1]: > 50%
Binder: Ac-[hLeu]YC[Tle]G[PipAla](CH2COOH)[Ala(4-THP)]DV[Phe(4-NHCONH2)]C[Trp(5-F)][(2S,3S)βMePhe][Val(3-OH)][dK](DOTA)-OH (disulfide 3-11 (inferred)) [Cpd 499]

% cell associated fraction [1]: > 50%
Binder: Ac-[hLeu]YC[Tle]G[PipAla][Ala(4-THP)]DVYC[Trp(5-F)][(2S,3S)βMePhe][Val(3-OH)][dK]([dE-DOTA])-OH (disulfide 3-11 (inferred)) [Cpd 501]

% cell associated fraction [1]: > 50%
Binder: Ac-[hLeu]YC[Tle]G[PipAla][PipAla]([PEG4′-DOTA])DVYC[Trp(5-F)]F[hydroxyVal][dA]-OH (disulfide 3-11 (inferred)) [Cpd 455]

% cell associated fraction [1]: > 50%
Binder: Ac-[hLeu]YC[Tle]G[PipAla][PipAla]([PEG4′-DOTA])DVYC[Trp(5-F)][(2S,3S)βMePhe][Val(3-OH)][dE]-NH2 (disulfide 3-11 (inferred)) [Cpd 495]

% cell associated fraction [2]: 25 to 50%
Binder: Ac-[hLeu]YC[Tle]G[PipAla](CH2COOH)[PipAla]([PEG4′-DOTA])DVYC[Trp(5-F)][(2S,3S)βMePhe][Val(3-OH)][dE]-NH2 (disulfide 3-11 (inferred)) [Cpd 496]
